The text below walks through data of article PMC4605320, “Interference activity of a minimal Type I CRISPR–Cas system from Shewanella putrefaciens”.

This data set has as its target T1, Cas1821 (Cascade backbone);Cas1822;Cas6f (Shewanella putrefaciens …, UniProt A4Y6G1;A4Y6G2;A4Y6G3 1-315;1-336;1-183, ||).
T1 sequence 1: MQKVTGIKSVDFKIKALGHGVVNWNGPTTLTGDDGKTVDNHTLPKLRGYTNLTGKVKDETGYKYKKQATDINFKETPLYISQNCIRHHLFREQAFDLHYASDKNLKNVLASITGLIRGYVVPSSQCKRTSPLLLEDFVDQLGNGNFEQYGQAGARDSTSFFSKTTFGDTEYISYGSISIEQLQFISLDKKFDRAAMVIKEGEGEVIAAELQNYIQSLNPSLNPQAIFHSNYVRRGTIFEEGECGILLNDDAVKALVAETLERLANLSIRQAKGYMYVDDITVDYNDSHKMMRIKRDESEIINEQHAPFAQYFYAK
T1 sequence 2: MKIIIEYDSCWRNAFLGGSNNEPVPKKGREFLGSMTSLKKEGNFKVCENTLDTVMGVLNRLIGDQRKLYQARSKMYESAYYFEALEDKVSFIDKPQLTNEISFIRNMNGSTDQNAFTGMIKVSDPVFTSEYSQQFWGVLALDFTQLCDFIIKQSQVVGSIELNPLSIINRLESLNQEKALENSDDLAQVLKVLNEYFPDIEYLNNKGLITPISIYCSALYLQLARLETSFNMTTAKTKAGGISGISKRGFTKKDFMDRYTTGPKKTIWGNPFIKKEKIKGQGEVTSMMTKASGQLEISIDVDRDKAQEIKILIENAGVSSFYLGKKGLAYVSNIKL
T1 sequence 3: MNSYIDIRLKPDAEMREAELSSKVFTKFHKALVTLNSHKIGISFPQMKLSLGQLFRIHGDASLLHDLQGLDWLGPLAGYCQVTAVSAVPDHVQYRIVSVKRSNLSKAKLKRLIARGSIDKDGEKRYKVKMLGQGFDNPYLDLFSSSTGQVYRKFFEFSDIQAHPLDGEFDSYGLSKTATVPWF
Briefly: co-purification (Ni-NTA, size exclusion; RNA by urea PAGE); complex assembled in E. coli; EMSA: 6% native PAGE, 250-500 nM Cas1821, buffer and temperature not given; Cascade SEC: 50 mM HEPES-NaOH pH 7.0, 150 mM NaCl, 1 mM DTT. Conditions: protein: recombinant;recombinant;recombinant; tags: N-terminal His;none;none; chain copies: 6;1;1; 3' five base pair stem-loop (predicted).

B1: mature crRNA, spacer4 (60 nt) (structured_RNA)
RNA: CUUAGAAAUAUCGCCCAGCAAGACGCGCAAACCUAUAACCGUUCACCGCCGCACAGGCGG
Consider B1, for which the binding result is recorded as “binds”.
